Among the data in patent publication US20220235128A1 are Ratio of antibody-bound cells values, retold here.

Substitutions are numbered along the chain they refer to.

B1: QP190191 (antibody, V domains shown)
VH: EVKLVESGGGLVKPGGSLKLSCAASGFTFSNYAMSWVRQTPEKRLEWVASIISGGRTYYLDSEKGRFTISRDNARNNLYLQMSSLRSEDTAMYYCTRIYYGNSFDYWGQGTTLTVSS
VL: DIVMTQSPSSQTVTAGEKVTMSCKSSQSLLNSGNQKNYLTWYQQKPGQPPKLLIYWASTRESGVPDRFTGSGSGTDFTLTISNMQAEDLAVYYCQNDYSYPFTFGSGTKLEIK
B2: QP207208 (antibody, V domains shown)
VH: EVQLQQSGPELVKPGASVKMSCKASGYTFTSYIMHWVKQKPGQGLEWIGYINPYNDGTKYNEKFKGKATLTSDKSSSTVYMELSSLTSEDSAVYCCARLGFTTRNAMDYWGQGTSVTVSS
VL: B1 VL with Q11L, T12S, T14S, S22N, T40A, W56G, N83S, M84V, Y98H
B3: QP201202 (antibody, V domains shown)
VH: EVQLQQSGPELVKPGASVKMSCKASGYTFTNYFVHWVKQKPGQGLEWIGYINPYNDDTKYNEKFKGKATLTSDKSSSTAYMDLSSLTSEDSAVYYCLSLRFFAYWGQGTLVTVSA
VL: B1 VL with Q11L, P49A, T69I, N83H, M84V, Y93F, F102L, S106A, K109N, I112L
B4: QP192193 (antibody, V domains shown)
VH: QVQLQQSGAELVRPGSSVKISCKASGYAFSSYWMNWVKQRPGQGLEWIGQIYPGNGDTTYNGKFKGQATLTADKSSSTVYMQLSSLTSEDSAVYFCARFVKGNAMDYWGQGTSVTVSS
VL: B1 VL with Q11L, K45N, L52M, T75I, T78S, N83S, M84V, V91L, D97A

The assay addresses claudin 18.2 (isoform 2 subtype of CLDN18) (UniProt P56856). Kind of assay: FACS, 5 ug/ml antibody on dissociated GA0006 gastric cancer PDX tumor cells, PE anti-human IgG Fc. (In flow cytometry, cells or beads pass a laser one at a time.)
As for IMAB362 (Claudiximab) (antibody), the Ratio of antibody-bound cells is 85.6%.

As to B1, the Ratio of antibody-bound cells was found to be 91.5%.

On to B2, for which the Ratio of antibody-bound cells was 91.7%.

On to B3, for which the Ratio of antibody-bound cells came to 90%.

For the molecule B4, the Ratio of antibody-bound cells was determined as 92.4%.
